One series deals with AncSZ. Nature of the series: phosphorylation enrichment, bacterial display (enrichment ratio); higher = better substrate or ligand; peptides without Tyr show the background.
For another series, the target named is EPHB1 (UniProt P54762). The description is as above.
The target of another series is EPHB2 (UniProt P29323). The series is described as above.
The target of the next series is FGFR1 (UniProt P11362). The description is as above.
A further series concerns the target FGFR3 (UniProt P22607). The series is described as above.
The test system of the next series is Fer (mouse). The series is described as above.
For a further series, the target named is Fes (UniProt P07332). Described as above.
A further series has as its target Fyn (UniProt P06241). Described as above.
In a further series the target is Hck (UniProt P08631). Described as above.
A further series has as its target Jak2 (UniProt O60674). Described as above.
The target in the next series is MERTK (UniProt Q12866). Described as above.
A further series has as its system c-Abl (mouse). Described as above.
For another series, the system named is c-Src. The description is as above.
For another series, the target named is Grb2 SH2 (UniProt P62993). Nature of the series: SH2 binding enrichment of the phosphorylated peptide, bacterial display (enrichment ratio); higher = better substrate or ligand; peptides without Tyr show the background.
Another series concerns the target SHP2-C SH2. Described as above.
A further series deals with c-Src SH2. Described as above.
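Throughout, for SH2 binding enrichment of the phosphorylated peptide, bacterial display: peptide library displayed on the E. coli surface as eCPX fusions, selected cells deep-sequenced, score is each peptide's frequency after selection divided by its frequency in the input.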
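Throughout, for phosphorylation enrichment, bacterial display: 11-residue human phosphosite peptides and single-mutation variants displayed on the E. coli surface, counted by deep sequencing, each peptide's frequency after selection divided by its frequency in the unselected input library; frequency after pTyr selection over input frequency; kinase dosed for 20-30% of maximal phosphorylation in three min.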

Sequence of FGFR1 (P11362 whole entry, looked up): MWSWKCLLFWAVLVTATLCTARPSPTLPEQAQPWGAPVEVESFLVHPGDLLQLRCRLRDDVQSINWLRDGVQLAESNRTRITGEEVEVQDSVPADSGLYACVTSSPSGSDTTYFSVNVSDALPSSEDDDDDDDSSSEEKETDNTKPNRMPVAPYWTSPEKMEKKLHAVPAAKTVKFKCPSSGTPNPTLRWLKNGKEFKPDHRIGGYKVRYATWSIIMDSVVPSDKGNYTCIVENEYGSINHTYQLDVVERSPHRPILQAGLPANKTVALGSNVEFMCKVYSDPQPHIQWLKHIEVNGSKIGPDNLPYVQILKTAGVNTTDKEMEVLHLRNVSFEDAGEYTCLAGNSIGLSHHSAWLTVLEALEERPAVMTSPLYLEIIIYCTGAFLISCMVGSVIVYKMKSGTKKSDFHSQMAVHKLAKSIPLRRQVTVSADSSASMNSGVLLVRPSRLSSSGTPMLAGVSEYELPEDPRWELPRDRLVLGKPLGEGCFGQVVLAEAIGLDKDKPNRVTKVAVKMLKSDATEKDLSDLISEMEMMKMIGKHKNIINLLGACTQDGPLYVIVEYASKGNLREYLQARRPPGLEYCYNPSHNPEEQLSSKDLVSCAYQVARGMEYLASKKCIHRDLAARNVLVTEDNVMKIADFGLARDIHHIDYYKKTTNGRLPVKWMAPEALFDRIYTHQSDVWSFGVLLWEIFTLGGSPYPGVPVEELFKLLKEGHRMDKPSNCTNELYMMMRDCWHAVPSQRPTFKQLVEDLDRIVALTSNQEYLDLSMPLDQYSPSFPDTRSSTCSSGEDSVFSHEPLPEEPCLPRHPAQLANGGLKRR
Sequence of Hck (P08631 whole entry, looked up): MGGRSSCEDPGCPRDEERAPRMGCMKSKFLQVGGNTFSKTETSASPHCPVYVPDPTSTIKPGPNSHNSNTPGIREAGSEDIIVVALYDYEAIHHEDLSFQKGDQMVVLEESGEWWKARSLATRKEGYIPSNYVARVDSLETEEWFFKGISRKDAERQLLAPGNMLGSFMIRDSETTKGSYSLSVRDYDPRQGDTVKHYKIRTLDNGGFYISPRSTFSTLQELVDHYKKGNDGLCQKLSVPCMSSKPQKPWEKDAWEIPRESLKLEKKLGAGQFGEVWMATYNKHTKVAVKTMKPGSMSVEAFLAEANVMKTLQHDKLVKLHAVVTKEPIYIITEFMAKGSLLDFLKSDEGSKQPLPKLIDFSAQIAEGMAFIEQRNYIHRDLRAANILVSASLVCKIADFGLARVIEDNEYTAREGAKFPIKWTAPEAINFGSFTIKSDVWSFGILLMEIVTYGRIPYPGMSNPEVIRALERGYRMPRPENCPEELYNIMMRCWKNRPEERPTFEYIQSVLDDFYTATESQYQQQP
Sequence of FGFR3 (P22607 whole entry, looked up): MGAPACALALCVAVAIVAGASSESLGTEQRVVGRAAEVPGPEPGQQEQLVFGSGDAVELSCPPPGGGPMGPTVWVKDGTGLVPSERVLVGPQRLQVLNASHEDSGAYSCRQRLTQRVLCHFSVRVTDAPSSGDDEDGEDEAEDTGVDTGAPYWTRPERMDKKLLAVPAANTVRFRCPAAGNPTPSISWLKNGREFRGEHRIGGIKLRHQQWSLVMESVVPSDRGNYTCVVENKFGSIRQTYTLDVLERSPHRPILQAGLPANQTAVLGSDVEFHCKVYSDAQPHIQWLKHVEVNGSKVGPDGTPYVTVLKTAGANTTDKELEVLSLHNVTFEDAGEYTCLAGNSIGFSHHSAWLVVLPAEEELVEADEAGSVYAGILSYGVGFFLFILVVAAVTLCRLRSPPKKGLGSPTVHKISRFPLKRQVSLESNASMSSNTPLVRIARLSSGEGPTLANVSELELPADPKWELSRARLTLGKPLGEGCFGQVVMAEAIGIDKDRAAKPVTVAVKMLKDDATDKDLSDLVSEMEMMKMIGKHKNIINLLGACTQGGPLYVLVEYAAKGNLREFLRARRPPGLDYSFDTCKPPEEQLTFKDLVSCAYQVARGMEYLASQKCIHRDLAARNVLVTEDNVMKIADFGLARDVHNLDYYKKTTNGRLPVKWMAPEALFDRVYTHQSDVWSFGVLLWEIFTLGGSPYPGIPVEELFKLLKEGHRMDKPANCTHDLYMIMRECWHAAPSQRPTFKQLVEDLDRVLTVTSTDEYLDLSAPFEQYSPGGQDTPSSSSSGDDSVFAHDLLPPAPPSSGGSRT
Sequence of MERTK (Q12866 whole entry, looked up): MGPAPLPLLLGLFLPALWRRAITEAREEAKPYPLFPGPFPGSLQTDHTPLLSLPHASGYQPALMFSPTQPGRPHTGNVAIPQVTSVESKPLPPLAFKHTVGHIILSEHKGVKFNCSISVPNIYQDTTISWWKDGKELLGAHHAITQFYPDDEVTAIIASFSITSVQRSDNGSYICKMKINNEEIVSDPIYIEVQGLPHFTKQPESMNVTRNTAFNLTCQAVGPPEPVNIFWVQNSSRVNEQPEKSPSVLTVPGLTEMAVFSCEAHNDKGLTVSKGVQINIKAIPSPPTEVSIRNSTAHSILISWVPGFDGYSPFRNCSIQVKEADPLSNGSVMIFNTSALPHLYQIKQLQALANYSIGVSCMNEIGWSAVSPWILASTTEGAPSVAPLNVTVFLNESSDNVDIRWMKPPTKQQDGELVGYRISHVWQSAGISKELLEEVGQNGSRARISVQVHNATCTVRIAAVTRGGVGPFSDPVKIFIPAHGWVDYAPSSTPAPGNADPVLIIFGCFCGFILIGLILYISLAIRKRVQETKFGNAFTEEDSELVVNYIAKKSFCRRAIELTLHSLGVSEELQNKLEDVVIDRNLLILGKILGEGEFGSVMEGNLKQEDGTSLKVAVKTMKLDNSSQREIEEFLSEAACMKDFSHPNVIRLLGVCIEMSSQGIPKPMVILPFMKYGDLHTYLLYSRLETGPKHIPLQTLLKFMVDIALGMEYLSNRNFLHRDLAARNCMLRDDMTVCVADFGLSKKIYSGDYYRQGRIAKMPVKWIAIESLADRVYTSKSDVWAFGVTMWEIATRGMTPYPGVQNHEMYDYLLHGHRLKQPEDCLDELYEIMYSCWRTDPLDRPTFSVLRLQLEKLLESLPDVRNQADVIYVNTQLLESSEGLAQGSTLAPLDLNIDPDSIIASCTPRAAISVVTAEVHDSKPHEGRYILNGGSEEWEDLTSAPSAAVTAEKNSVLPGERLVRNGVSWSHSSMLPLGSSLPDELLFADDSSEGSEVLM
Sequence of EPHB1 (P54762 whole entry, looked up): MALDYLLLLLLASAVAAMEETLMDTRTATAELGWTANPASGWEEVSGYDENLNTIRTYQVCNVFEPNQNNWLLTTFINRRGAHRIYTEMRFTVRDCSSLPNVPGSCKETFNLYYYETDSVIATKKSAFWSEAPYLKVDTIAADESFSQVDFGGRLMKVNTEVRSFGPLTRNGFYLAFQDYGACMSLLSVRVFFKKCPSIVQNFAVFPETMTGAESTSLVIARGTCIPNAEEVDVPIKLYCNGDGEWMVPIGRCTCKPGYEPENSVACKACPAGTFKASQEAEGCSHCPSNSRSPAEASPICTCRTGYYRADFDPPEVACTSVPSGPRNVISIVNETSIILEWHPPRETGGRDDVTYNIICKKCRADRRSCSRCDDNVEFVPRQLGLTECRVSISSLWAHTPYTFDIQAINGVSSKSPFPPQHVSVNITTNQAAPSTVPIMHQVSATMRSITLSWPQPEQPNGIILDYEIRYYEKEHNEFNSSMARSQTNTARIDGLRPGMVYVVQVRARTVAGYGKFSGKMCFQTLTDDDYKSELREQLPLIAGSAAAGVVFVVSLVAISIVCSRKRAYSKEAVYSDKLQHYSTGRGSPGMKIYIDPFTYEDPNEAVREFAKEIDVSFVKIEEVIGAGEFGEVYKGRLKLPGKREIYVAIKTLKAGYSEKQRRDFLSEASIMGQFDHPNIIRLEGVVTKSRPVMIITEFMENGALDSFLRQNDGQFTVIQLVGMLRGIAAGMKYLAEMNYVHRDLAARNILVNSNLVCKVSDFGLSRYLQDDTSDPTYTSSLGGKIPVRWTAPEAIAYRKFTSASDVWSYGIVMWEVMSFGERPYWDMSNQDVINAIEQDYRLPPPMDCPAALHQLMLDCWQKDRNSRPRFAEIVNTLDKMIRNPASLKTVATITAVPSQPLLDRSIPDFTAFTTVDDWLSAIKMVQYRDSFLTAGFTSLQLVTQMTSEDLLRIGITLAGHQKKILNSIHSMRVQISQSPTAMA
Sequence of Fyn (P06241 whole entry, looked up): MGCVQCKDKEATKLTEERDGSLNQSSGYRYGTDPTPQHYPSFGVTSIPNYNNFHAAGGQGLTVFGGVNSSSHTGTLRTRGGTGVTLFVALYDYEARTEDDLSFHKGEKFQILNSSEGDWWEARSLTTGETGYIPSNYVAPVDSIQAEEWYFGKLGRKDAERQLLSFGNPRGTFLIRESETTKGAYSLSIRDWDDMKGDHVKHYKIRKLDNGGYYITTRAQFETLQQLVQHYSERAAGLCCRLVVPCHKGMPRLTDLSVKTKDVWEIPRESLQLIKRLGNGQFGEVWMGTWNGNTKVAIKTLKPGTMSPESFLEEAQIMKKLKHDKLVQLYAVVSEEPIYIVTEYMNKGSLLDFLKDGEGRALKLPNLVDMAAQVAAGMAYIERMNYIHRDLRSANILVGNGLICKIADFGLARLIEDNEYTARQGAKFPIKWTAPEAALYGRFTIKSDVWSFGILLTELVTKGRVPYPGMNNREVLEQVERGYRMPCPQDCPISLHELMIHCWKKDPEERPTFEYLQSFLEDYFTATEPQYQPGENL
Sequence of Grb2 SH2 (P62993 whole entry, looked up): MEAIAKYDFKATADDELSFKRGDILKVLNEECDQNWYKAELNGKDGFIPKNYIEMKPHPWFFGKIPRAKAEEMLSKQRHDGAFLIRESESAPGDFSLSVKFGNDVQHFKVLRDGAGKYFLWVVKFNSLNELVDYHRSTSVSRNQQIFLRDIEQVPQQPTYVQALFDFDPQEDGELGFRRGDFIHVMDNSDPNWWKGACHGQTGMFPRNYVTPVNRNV

As to GGQVFYNSEYG [FLT4_Y1333], the phosphorylation enrichment in the series with AncSZ amounted to 0.719; in the series with EPHB1 it was 0.402; with EPHB2 it was 0.442; with FGFR1 it was 0.376; with FGFR3, 0.558; in the series on Fer (mouse), 0.36. For the same sequence, the phosphorylation enrichment worked out at 0.779 in the series with Fes; 0.456 with Fyn; 0.462 with Hck; 0.751 with Jak2; 0.467 in the series with MERTK; 0.497 in the series with c-Abl (mouse). Also, the phosphorylation enrichment with c-Src amounted to 0.521. Moreover, the SH2 binding enrichment in the series with Grb2 SH2 was determined as 0.648; with SHP2-C SH2 it was 0.707; in the series with c-Src SH2, 0.435.
As for TQRPYYKGGGG [TYROBP_Y112], the phosphorylation enrichment in the series on AncSZ is 0.49; with EPHB1, 0.39; with EPHB2, 0.303; with FGFR1 it was 0.558; with FGFR3, 0.455; with Fer (mouse) it was 0.419. The phosphorylation enrichment was 0.666 with Fes; 0.417 with Fyn; 0.377 in the series with Hck; 0.537 with Jak2; 0.553 with MERTK; 0.573 in the series on c-Abl (mouse). Also, the phosphorylation enrichment with c-Src was 0.438. The values for the SH2 binding enrichment with Grb2 SH2, with SHP2-C SH2 and with c-Src SH2 were 1.08, 0.765 and 0.93, respectively.
As for KFVKMCDNHQL [MYO9A_Y203_Y203C_YF], the phosphorylation enrichment stood at 0.483 in the series with AncSZ; 0.425 with EPHB1; 0.384 with EPHB2; 0.429 with FGFR1; 0.45 in the series with FGFR3; 0.358 in the series on Fer (mouse). Also, the phosphorylation enrichment came out at 0.603 in the series with Fes; 0.419 in the series with Fyn; 0.42 with Hck; 0.513 with Jak2; 0.378 with MERTK; 0.519 in the series on c-Abl (mouse). The phosphorylation enrichment in the series with c-Src came out at 0.441. Moreover, the SH2 binding enrichment in the series with Grb2 SH2 is 0.8; with SHP2-C SH2 it was 0.795; with c-Src SH2, 0.587.
As to RLLRGYDQYAY [HLA-B_Y137_H137Y], the phosphorylation enrichment stood at 0.865 in the series with AncSZ; 0.636 in the series with EPHB1; 0.821 in the series with EPHB2; 0.548 with FGFR1; 0.508 in the series with FGFR3; 0.476 with Fer (mouse). Moreover, the phosphorylation enrichment with Fes turned out to be 0.924; with Fyn, 0.518; with Hck, 0.575; with Jak2, 0.844; with MERTK, 0.596; with c-Abl (mouse) it was 0.659. For the same sequence, the phosphorylation enrichment with c-Src was 0.738. Further, the figures for the SH2 binding enrichment in the series with Grb2 SH2, in the series with SHP2-C SH2 and with c-Src SH2 were 1.26, 0.954 and 2.15, respectively.
TYGNLYGSRKQ [YIPF7_Y59_A54T]: the phosphorylation enrichment amounted to 0.655 with AncSZ; 0.434 in the series with EPHB1; 0.74 with EPHB2; 0.486 in the series with FGFR1; 0.467 with FGFR3; 1.38 in the series with Fer (mouse). The phosphorylation enrichment is 0.6 with Fes; 6.14 with Fyn; 13.2 in the series with Hck; 0.73 with Jak2; 0.89 with MERTK; 0.864 in the series with c-Abl (mouse). Besides, the phosphorylation enrichment in the series with c-Src came to 7.59. Further, the results for the SH2 binding enrichment with Grb2 SH2, with SHP2-C SH2 and in the series with c-Src SH2 were 0.94, 0.945 and 0.632, respectively.
As to LGLDEYLDKLK [FMNL2_Y352], the phosphorylation enrichment is 1.47 with AncSZ; 0.716 with EPHB1; 0.816 with EPHB2; 0.536 in the series with FGFR1; 0.971 with FGFR3; 0.933 in the series with Fer (mouse). Further, the phosphorylation enrichment was determined as 1.27 in the series with Fes; 0.394 with Fyn; 0.587 with Hck; 1.71 with Jak2; 0.569 with MERTK; 0.982 with c-Abl (mouse). In the series on c-Src, the phosphorylation enrichment came to 0.375. In addition, the SH2 binding enrichment is 0.78 with Grb2 SH2, 0.662 with SHP2-C SH2 and 0.588 in the series with c-Src SH2.
As to KSRQIYDAYIM [GRK3_Y109_R104K], the phosphorylation enrichment with AncSZ turned out to be 0.797; in the series with EPHB1, 2.98; with EPHB2, 7; in the series with FGFR1, 0.505; with FGFR3, 0.546; with Fer (mouse) it was 12.4. Moreover, the phosphorylation enrichment with Fes is 0.735; in the series with Fyn, 11.1; with Hck it was 8.38; with Jak2, 0.581; in the series with MERTK, 6.9; in the series with c-Abl (mouse), 5.89. Moreover, in the series on c-Src, the phosphorylation enrichment worked out at 8.25. Further, the SH2 binding enrichment with Grb2 SH2 came to 0.955; in the series with SHP2-C SH2 it was 0.834; with c-Src SH2, 0.683.
As to QRDSSYYWEIE [RAF1_Y340], the phosphorylation enrichment was determined as 1.3 with AncSZ; 2.77 with EPHB1; 1.14 in the series with EPHB2; 3.91 with FGFR1; 3.03 with FGFR3; 0.536 in the series on Fer (mouse). For the same sequence, the phosphorylation enrichment with Fes came out at 1.09; with Fyn, 2.12; with Hck, 0.981; in the series with Jak2, 1.13; with MERTK, 3.5; with c-Abl (mouse), 0.744. Besides, the phosphorylation enrichment in the series on c-Src was 1.95. Further, the SH2 binding enrichment is 0.762 with Grb2 SH2, 0.797 in the series with SHP2-C SH2 and 10.6 with c-Src SH2.
